Earlier results, collected in PMC5152572.
Like-named read-outs stand apart in the source and are kept apart here.

What was measured:
[1] = target: IL-1 receptor (Homo sapiens) (UniProt P14778)
[2] = target: IL-1 receptor (Homo sapiens) (UniProt P14778); remark: listed apart in the source

UniProt P14778, sequence (P14778 18-569): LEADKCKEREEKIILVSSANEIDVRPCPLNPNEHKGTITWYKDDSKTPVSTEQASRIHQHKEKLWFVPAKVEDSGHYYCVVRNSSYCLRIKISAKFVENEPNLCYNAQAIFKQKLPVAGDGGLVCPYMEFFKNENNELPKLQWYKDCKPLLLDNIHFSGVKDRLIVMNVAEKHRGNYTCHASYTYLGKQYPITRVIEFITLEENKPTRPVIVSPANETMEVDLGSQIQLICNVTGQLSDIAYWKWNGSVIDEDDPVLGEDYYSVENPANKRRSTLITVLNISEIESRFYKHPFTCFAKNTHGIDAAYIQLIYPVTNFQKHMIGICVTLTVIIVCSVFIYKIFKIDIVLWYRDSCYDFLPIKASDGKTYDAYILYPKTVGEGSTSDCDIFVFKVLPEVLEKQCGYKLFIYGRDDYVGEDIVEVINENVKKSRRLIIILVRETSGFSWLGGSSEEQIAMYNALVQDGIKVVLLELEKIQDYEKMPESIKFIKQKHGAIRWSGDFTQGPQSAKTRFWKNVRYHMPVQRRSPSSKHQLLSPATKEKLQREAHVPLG

pro-IL-1α (from UniProt P01583)
Kd [1]: 4 nM

mature IL-1α mature (from UniProt P01583)
Kd [2]: 4.5 nM
